The experiment addresses Fc receptor (FcR) on antigen presenting cells. Briefly: cell-based or functional assay.

“Ig-W (from UniProt P01867 1-335) (antibody)” showed an inhibition of IL-2 production in Ig-PLP1 mediated activation of 4E3 T cells of 50%.

For the origin of these results see patent publication US20090280132A1.
